Test system: MS2 coat protein
Assay: apparent KD of MS2 coat protein; designed switch direction (-1 OFF switch, 1 ON switch): 1; higher = weaker reporter binding
In short: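 Designed RNA switches were transcribed on Illumina chips by stalled E. coli RNA polymerase and titrated with SNAP-549-labelled MS2 coat protein from 0.7 or 1.5 nM, doubling to 3 µM. Step length ran from 0.8–1.5 h at the lowest concentration to 10–20 min at the highest. The apparent KD is the median over clusters for each design, from curve-fitted normalised cluster fluorescence.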

[1] = input ligand: microRNA oligo, concentration not stated

Sequence | apparent KD of MS2 coat protein (input ligand: FMN 200 uM) [nM] | apparent KD of MS2 coat protein [1] [nM] | apparent KD of MS2 coat protein (input ligand: none) [nM]
GUGGCGGGUUGAGGAUAUUGGUUGCCGCUGUUUUACAUGAGGAUCACCCAUGUGGGUUGCGGUUUCGAGAAGGGCGGUUGCUGG [salish99_SSNG2_r04_056] (Eterna round: R96, puzzle: Same State NG 2) | 18.2 | 14.6 | 24
GUGGUCAGACAUGAGGAUCACCCAUGUGGAAUAAAUAACAACUAGGAUAUAUAAUAUAGGAUAUAAUAGAAGGAGUGAUUGGUG (Eterna round: R96, puzzle: Same State NG 3) | – | 121 | –
GUGGUCAGACAUGAGGAUCACCCAUGUGGAAUAAAUAACAACUAGGAUAUGUAAUAUAGGAUAUAACAGAAGGAGUGAUUGGUG (Eterna round: R96, puzzle: Same State NG 3) | – | 111 | –
GUGGUCAGACAUGAGGAUCACCCAUGUGGAAUAAAUAAGGAGAAGGAUAUAGAAUAUAGGAUAUACUAGAAGGUCUGGUUGGUG (Eterna round: R96, puzzle: Same State NG 3) | – | 63.7 | –
GUGGUCAGACAUGAGGAUCACCCAUGUGGAAUAAAUAAGGGAAAGGAUAUAAAAUAUAGGAUAUAUUAGAAGGUUCGGUUGGUG (Eterna round: R96, puzzle: Same State NG 3) | 131 | 83.9 | 89.6
GUGGUCAGACAUGAGGAUCACCCAUGUGGAAUAAAUAAGGGACAGGAUAUUUAAUAUAGGAUAUAGAAGAAGGGUUGGUUGGUG (Eterna round: R96, puzzle: Same State NG 3) | – | 88.7 | –
GUGGUCAGACAUGAGGAUCACCCAUGUGGAAUAAAUAAGGGUUAGGAUAUGGAAUAUAGGAUAUACCAGAAGGGAUGGUUGGUG (Eterna round: R96, puzzle: Same State NG 3) | 123 | 108 | 111
GUGGUCUGACAUGAGGAUCACCCAUGUGGAAUAAAUACGGGUCAGGAUAUCUUGAGGAUCACCCAAGAGAAGGGACGGAUUGUU (Eterna round: R96, puzzle: Same State NG 3) | 24 | 23.5 | 35.1
GUGGUCUGACAUGAGGAUCACCCAUGUGGAAUAAAUACGGGUUAGGAUAUCUUGAGGAUCACCCAAGAGAAGGGAUGGAUUGUU (Eterna round: R96, puzzle: Same State NG 3) | 83.9 | 54.7 | 80.8
GUGGUGAAUUAAGGAUAUCGAGUCUAGAUGUUAAACAUGAGGAUCACCCAUGUGGGUUGCGGUGUCGAGAAGGUAAUUUACGGG [salish99_SSNG2_r04_508] (Eterna round: R96, puzzle: Same State NG 2) | – | 52.6 | –
GUGGUGAAUUAAGGAUAUCGAGUCUAGAUGUUAAACAUGAGGAUCACCCAUGUGGGUUGCGGUGUCGAGAAGGUGGUUUACGGG [salish99_SSNG2_r04_510] (Eterna round: R96, puzzle: Same State NG 2) | 63.2 | 84 | 72.3
GUUACAUGAGGAUCACCCAUGUAUGUGUGGGAGUAAGUGUCUUAGGAUAUCUAGUAUUUAAAUUAAGAGAAGGAAGAUUGUUGU [JMF's solution 9] (Eterna round: R96, puzzle: Same State NG 3) | 117 | 84.8 | 113
GUUACAUGAGGAUCACCCAUGUAUGUGUGGGAGUAAGUGUCUUAGGAUAUCUAGUAUUUAAUCUAAGAGAAGGAAGAUUGUUGU [JMF's solution 65] (Eterna round: R96, puzzle: Same State NG 3) | 105 | 74.1 | 128
GUUACAUGAGGAUCACCCAUGUAUGUGUGGGAGUAAGUGUCUUAGGAUAUCUAUGAUUUAAUUUUAGAGAAGGAAGAUUGUUGU [JMF's solution 86] (Eterna round: R96, puzzle: Same State NG 3) | 112 | 70.9 | 90.8
GUUACAUGAGGAUCACCCAUGUAUGUGUGGGAGUAAGUGUCUUAGGAUAUCUAUUAUUUAAUUUAAGAGAAGGAAGAUUGUUGU [JMF's solution 22] (Eterna round: R96, puzzle: Same State NG 3) | – | 82.3 | –
GUUACAUGAGGAUCACCCAUGUAUGUGUGGGAGUAAGUGUCUUAGGAUAUCUAUUAUUUGAAUUAAGAGAAGGAAGAUUGUUGU [JMF's solution 21] (Eterna round: R96, puzzle: Same State NG 3) | 128 | 69.8 | 103
GUUACAUGAGGAUCACCCAUGUGUGUGUGGGAGUGAGUGGCUUAGGAUAUCUAUGAUUUAAGUUAAGAGAAGGGAGAUUGUUGU [SS-NG3-LRO04] (Eterna round: R96, puzzle: Same State NG 3) | 441 | 330 | 344
